Our source for the stoichiometry N values is PMC11630572.

The target in assay [1] is recombinant spike ectodomain of SARS-CoV-2 Omicron subvariant BA.5 (SARS-CoV-2). Nature of the assay: cryo-EM structure; complexes of BA.5 or JN.1 spike ectodomain with Nanosota-9-His (0.8 uM); three Nanosota-9 on each trimeric spike, two of them crosslinking two RBDs (2:2 mode).
The target in assay [2] is recombinant spike ectodomain of SARS-CoV-2 Omicron subvariant JN.1 (SARS-CoV-2). The assay is described as above.

The term stoichiometry N denotes the number of molecules, sites or subunits per partner or assembly.

On to “recombinant spike ectodomain of SARS-CoV-2 Omicron subvariant BA.5 (domain or fragment)”, for which the stoichiometry N in assay [1] came to 3.
Take “recombinant spike ectodomain of SARS-CoV-2 Omicron subvariant JN.1 (domain or fragment)”: the stoichiometry N in assay [2] turned out to be 3.
